{
  "source": "paper PMC10119312",
  "about": "“Structural insights into RNase J that plays an essential role in Mycobacterium tuberculosis RNA metabolism” (Nature Communications, 2023)",
  "proteins": {"B1": {"name": "Mycobacterium tuberculosis RNase J, full-length wild type (enzyme)", "chain": "MDVDLPPPGPLTSGGLRVTALGGINEIGRNMTVFEHLGRLLIIDCGVLFPGHDEPGVDLILPDMRHVEDRLDDIEALVLTHGHEDHIGAIPFLLKLRPDIPVVGSKFTLALVAEKCREYRITPVFVEVREGQSTRHGVFECEYFAVNHSTPDALAIAVYTGAGTILHTGDIKFDQLPPDGRPTDLPGMSRLGDTGVDLLLCDSTNAEIPGVGPSESEVGPTLHRLIRGADGRVIVACFASNVDRVQQIIDAAVALGRRVSFVGRSMVRNMRVARQLGFLRVADSDLIDIAAAETMAPDQVVLITTGTQGEPMSALSRMSRGEHRSITLTAGDLIVLSSSLIPGNEEAVFGVIDALSKIGARVVTNAQARVHVSGHAYAGELLFLYNGVRPRNVMPVHGTWRMLRANAKLAASTGVPQESILLAENGVSVDLVAGKASISGAVPVGKMFVDGLIAGDVGDITLGERLILSSGFVAVTVVVRRGTGQPLAAPHLHSRGFSEDPKALEPAVRKVEAELESLVAANVTDPIRIAQGVRRTVGKWVGETYRRQPMIVPTVIEV", "notes": "also called Mtb-RNase J; WT; not shown: 6xHis-sumo, N-terminal, cleaved"}},
  "biological_target": "the molecule itself",
  "assay": "SEC",
  "data": [
    {"protein": "B1", "values": [
      {"measurement": "stoichiometry N", "result": 2}
    ]}
  ]
}
